From publication PMC2265524, “ruvA Mutants That Resolve Holliday Junctions but Do Not Reverse Replication Forks” (PLoS Genetics, 2008) come the findings set out here.

Substitutions are numbered along the chain they refer to. Names may count otherwise.

Data set [1] deals with T1, RuvA wild type (Escherichia coli, UniProt P0A809 1-203).
T1 sequence: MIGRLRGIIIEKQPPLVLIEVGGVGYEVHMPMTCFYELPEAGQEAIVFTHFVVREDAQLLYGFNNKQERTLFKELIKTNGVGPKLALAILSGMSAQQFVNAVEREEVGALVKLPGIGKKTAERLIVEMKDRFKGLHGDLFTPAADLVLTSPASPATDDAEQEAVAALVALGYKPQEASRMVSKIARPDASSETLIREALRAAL
The experiment in a line: EMSA; EDTA; complexes I and II; EMSA with ~4-5 ng labelled DNA; 5 mM EDTA (gel 0.5x TBE) or 3 mM MgCl2 without EDTA (gel 0.5x TB + 200 uM MgCl2); buffer as in cited ref 18; salt, pH and temperature not stated. The conditions noted are these: protein: recombinant; chain copies: 4; label: 5' IRD700 on S24 (IT.01); four-way junction of 4 strands. For orientation: In EMSA bound probe runs differently from free probe, usually more slowly.

Data set [2] has as its target T2, wild-type RuvB protein (E. coli) (UniProt P0A812).
T2 sequence: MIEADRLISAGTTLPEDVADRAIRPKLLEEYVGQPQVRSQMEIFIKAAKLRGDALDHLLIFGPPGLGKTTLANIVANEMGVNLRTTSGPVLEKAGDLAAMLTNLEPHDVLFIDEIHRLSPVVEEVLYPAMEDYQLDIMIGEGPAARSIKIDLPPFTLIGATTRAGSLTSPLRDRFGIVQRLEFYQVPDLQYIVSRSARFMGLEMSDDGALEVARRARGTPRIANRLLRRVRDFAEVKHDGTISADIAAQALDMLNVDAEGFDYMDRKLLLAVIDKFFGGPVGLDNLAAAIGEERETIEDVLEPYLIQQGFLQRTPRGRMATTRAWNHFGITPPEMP

Data set [3] deals with the molecule itself. The data set can be described thus: SDS-PAGE without boiling the protein samples; purified RuvA mutant proteins run on SDS-PAGE without boiling; tetramer band under denaturing gel conditions; data not shown.

B1: X12 (synthetic Holliday junction) (structured_DNA)
DNA 1: GACGCTGCCGAATTCTACCAGTGCCTTGCTAGGACATCTTTGCCCACCTGCAGGTTCACCC
DNA 2: TGGGTGAACCTGCAGGTGGGCAAAGATGTCCTAGCAATGTAATCGTCAAGCTTTATGCCGTT
DNA 3: CAACGGCATAAAGCTTGACGATTACATTGCTAGGACATGCTGTCTAGAGGATCCGACTATCGA
DNA 4: ATCGATAGTCGGATCCTCTAGACAGCATGTCCTAGCAAGGCACTGGTAGAATTCGGCAGCGT
Consider B1, for which the binding result in data set [1] was “binds”.

B2: wild-type RuvA (natural protein)
chain: T1 sequence
For B2, in data set [2], the RuvA concentration required for RuvB (250 nM) to unwind 50% of a labelled 52-mer annealed to phiX174 ssDNA (DNA helicase assay) was found to be 100 nM.

B3: RuvAz3 (natural protein, E. coli, UniProt P0A809 1-203, looked up)
chain: T1 sequence with H29R, K129E, F140S
notes: RuvA of E. coli with the three mutations H29R K129E F140S; Purification steps and expression construct of the mutant proteins are in the supplementary material (Text S1); also called ruvAz3 (H29R K129E F140S); pGB-ruvAz3; source: over-expressed in E. coli and purified
As to B3, the “stoichiometry N” value in data set [3] came to 4.

B4: RuvAz87 (natural protein, E. coli, UniProt P0A809 1-203, looked up)
chain: T1 sequence with N79D, N100D
notes: RuvA of E. coli with the two mutations N79D N100D; Purification steps and expression construct of the mutant proteins are in the supplementary material (Text S1); also called ruvAz87 (N79D N100D); ruvA87; source: over-expressed in E. coli and purified
Regarding B4, the “stoichiometry N” value in data set [3] turned out to be 4.

The stoichiometry N is a count of units in the complex or per binding partner.
